The text below walks through data of US20140024050A1 (published 2014).

Bridges are numbered along the chain shown (N, C = ends). Where no end group is shown, it is not given here.

T1: Alexa-488 labeled PIVKAII Gla domain peptide (13-27), cyclized (disulfide 5-10 (inferred); also: Alexa Fluor 488 attached via TFP active ester, site not given here)
T1 construct: also called Alexa488-PIVKAII (13-27); Alexa488-PIVKAII peptide (13-27 cyc)
T1 peptide: LERECVEETCSYEEA

B1: anti-PIVKA-II monoclonal antibody 3C10 (hybridoma-derived) (antibody, V domains shown)
VH: EVQLVESGGDLVKPGGSLKLSCAASGFTFSSYGMSWVRQTPDKRLEWVATISRGGSSTYYPDSVKGRFTISRDNAKNNLYLQMSSLKSEDTAMYYCASLNYGNFFDYWGQGTTLTVSS
VL: DVVMTQTPLSLPVSLGDQASISCRSSQSLVHSNGNTYLHWYLQKPGQSPKLLIYKVSNRFSGVPDRFSGSGSGTDFTLKISRVEAEDLGVYFCSQNRHVPPTFGGGTKLEIKR
notes: Mouse monoclonal from a GANP transgenic C57BL/6 mouse immunized with PIVKA-II 13-27 peptide-KLH; For the Kd by quenching the antibody carried Black Hole Quencher (I.R. 2.3); also called mAb 3C10; clone 3C10
B2: Gla domain Protein Z peptide (sequence 16) (peptide)
peptide: LEKECYEEICVYEEA
notes: also called PIVKAII Gla domain (13-27) analog; PIVKAII peptide analog
B3: Gla domain Factor IX peptide (sequence 11) (peptide)
peptide: LERECMEEKCSFEEA
notes: as for B2
B4: Gla domain Protein S peptide (sequence 15) (peptide)
peptide: LERECIEELCNKEEA
notes: as for B2
B5: Gla domain Factor X peptide (sequence 12) (peptide)
peptide: LERECMEETCSYEEA
notes: as for B2
B6: Gla domain Factor VII peptide (sequence 13) (peptide)
peptide: LERECKEEQCSFEEA
notes: as for B2
B7: Gla domain Protein C peptide (sequence 14) (peptide)
peptide: LERECIEEICDFEEA
notes: as for B2

The target of assay [1] is T1, Alexa-488 labeled PIVKAII Gla domain …. As to the kind of experiment: fluorescence quenching (FRET) titration in solution, BHQ-labeled mAb, 0.05 nM Alexa488 peptide. The procedure: The binding curve was fit with a simple fitting model.
All binding measurements were performed in 10 mM HEPES buffer, pH 7.4, containing 0.15M NaCl, 3 mM EDTA, and 0.005% surfactant P20.

In assay [2] the target is T2, PIVKA-II antigen (heat-decarboxylated prothrombin) (UniProt P00734 44-622, Gla residues of the Gla domain decarboxylated to glutamic acid by heating dried prothrombin powder at 110 C for 8 hours).
T2 construct: Residues 13-27 are counted on the Gla domain
As to the kind of experiment: FCS displacement of Alexa488-PIVKAII (13-27) from mAb 3C10 by PIVKA-II preparations. As for the experimental part: Various amounts of PIVKAII from different preparations were added to the antigen-antibody complex. After overnight incubation, FCS measurements were performed on each sample.

The target in assay [3] is B1. As to the kind of experiment: FCS displacement: 2 nM Alexa488-PIVKAII (13-27) premixed with 10 nM mAb 3C10, analog added, overnight. The procedure:
(§1) Then, various PIVKAII Gla domain (13-27) analogs were added to the sample. PIVKAII (13-27) was added as a positive control, and the original sample was used as a negative control. FCS measurements were performed on each sample after overnight incubation.

Assay [4] addresses B1. As to the kind of experiment: FCS displacement of Alexa488-PIVKAII (13-27) from mAb 3C10, positive control. As for the experimental part:
as §1

As to B1, the Kd in assay [1] was 0.15 nM. For the same molecule, in assay [2], the binding result is “binds”.

With B2, in assay [3], the binding result is listed as “no binding”.

In the case of B3, the binding result in assay [3] is “no binding”.

With B4, the binding result in assay [3] is on record as “no binding”. As to LERECVEETCSYEEA (also called PIVKA-II peptide (13-27)) [PIVKAII (13-27) peptide, unlabeled], the binding result in assay [4] is reported as “binds”. B5: the binding result in assay [3] was “no binding”. B6: the binding result in assay [3] is recorded as “no binding”. The same measure, in the same setting: the entry for B7 is “no binding”.

One may read the Kd as the free concentration of one partner at which half of the binding sites on the other are occupied at equilibrium, for simple one-to-one binding. Read a low Kd as higher affinity.
